Changes are numbered by the printed parent chain. Blank lines part the entries; values can stand above or below the binder they belong to.
Legend:
[1] = biological target: T1, human VEGF165 (human, UniProt P15692); test: SPR, pH 5
T1 chain: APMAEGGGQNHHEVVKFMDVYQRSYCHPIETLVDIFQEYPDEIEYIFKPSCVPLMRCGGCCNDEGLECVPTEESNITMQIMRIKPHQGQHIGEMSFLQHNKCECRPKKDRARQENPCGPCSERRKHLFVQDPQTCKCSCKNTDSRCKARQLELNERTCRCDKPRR

[2] = biological target: T1, human VEGF165; test: SPR, pH 7.4
[3] = biological target: T2, mouse VEGF164 (mouse, UniProt Q00731); test: SPR, pH 5
T2 chain: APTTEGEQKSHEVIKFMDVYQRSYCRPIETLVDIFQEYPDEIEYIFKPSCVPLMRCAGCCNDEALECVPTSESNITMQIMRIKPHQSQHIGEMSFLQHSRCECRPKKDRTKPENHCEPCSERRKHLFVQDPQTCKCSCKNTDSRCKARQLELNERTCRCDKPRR

[4] = biological target: T3, rat VEGF164 (rat, UniProt P16612); test: SPR, pH 5
T3 chain: T2 chain with S10A, I14V, I75V

[5] = biological target: T1, human VEGF165; test: SPR, pH 5
[6] = biological target: T2, mouse VEGF164; test: SPR, pH 7.4
[7] = biological target: T3, rat VEGF164; test: SPR, pH 7.4
[8] = biological target: T1, human VEGF165; test: SPR, pH 5
[9] = biological target: T1, human VEGF165; test: SPR, pH 7.4
[10] = biological target: T2, mouse VEGF164; test: SPR, pH 5
[11] = biological target: T4, human VEGF121 (human, UniProt P15692); test: SPR, pH 5
T4 chain: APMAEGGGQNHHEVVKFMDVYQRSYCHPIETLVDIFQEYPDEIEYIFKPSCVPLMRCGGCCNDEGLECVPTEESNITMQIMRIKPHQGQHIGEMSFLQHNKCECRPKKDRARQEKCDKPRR

[12] = biological target: T3, rat VEGF164; test: SPR, pH 5
[13] = biological target: T5, human VEGF110 (human, UniProt P15692); test: SPR, pH 5
T5 chain: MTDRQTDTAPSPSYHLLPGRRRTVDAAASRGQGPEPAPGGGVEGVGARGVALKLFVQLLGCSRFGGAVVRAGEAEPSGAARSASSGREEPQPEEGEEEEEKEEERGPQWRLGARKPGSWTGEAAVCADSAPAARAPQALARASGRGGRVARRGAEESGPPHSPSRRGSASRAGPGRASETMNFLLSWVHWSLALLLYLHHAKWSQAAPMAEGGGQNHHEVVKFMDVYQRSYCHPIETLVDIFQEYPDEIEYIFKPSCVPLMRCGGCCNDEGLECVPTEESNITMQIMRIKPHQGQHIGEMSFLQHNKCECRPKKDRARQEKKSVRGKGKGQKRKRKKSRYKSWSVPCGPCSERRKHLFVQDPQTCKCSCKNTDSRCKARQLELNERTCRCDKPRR

[14] = biological target: T6, human PlGF (human, UniProt P49763); test: SPR, pH 5
T6 chain: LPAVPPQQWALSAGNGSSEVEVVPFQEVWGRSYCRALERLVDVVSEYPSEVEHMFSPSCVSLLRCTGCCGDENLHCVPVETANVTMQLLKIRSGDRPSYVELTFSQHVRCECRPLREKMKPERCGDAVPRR

[15] = biological target: T1, human VEGF165; test: competition, VEGFR2 ELISA
[16] = biological target: T1, human VEGF165; test: SPR, pH 7.4

B1: 375-min (antibody, V domains shown)
VH: EVQLVESGGGLVQPGGSLRLSCAASGFSFTTTDYMCWVRQAPGKGLEWVSCILAGDGSTYYANWAKGRFTISRDNSKNTLYLQMNSLRAEDTAVYYCAKSDPASSWSFALWGQGTLVTVSS
VL: EIVMTQSPSTLSASVGDRVIITCQASENINIWLSWYQQKPGKAPKLLIYQASKLASGVPSRFSGSGSGAEFTLTISSLQPDDFATYYCQNNYSYNRYGAPFGQGTKLTVLG
- Kd [1]: 5.41 nM
- koff [2]: 3.86 s⁻¹

B4: 511-max (antibody, V domains shown)
VH: EVQLVESGGGLVQPGGSLRLSCTVSGFSLNTYYMNWVRQAPGKGLEWVGIIAPDDTTYYASWAKSRSTISRDTSKNTVYLQMNSLRAEDTAVYYCARSGDTTAWGADIWGQGTLVTVSS
VL: EIVMTQSPSTLSASVGDRVIITCQASQSINIWLSWYQQKPGKAPKLLIYRASTLASGVPSRFSGSGSGTEFTLTISSLQPDDFATYYCQANYAYSAGYGAAFGQGTKLTVLG
- Kd [10]: 0.0613 nM
- Kd [11]: 0.214 nM
- Kd [12]: 0.106 nM
- Kd [13]: 0.197 nM
- binding result [14]: no binding
- Kd [1]: 0.0667 nM
- Kd [9]: 0.0856 nM
- EC50 [15]: 0.822 nM

The next lines start with the values.

- Kd [3]: 0.567 nM
- Kd [4]: 0.748 nM
- Kd [5]: 0.625 nM
- Kd [6]: 0.0273 nM
- Kd [7]: 0.0219 nM
B2: 578minmax (903) (antibody, V domains shown)
VH: EVQLVESGGGLVQPGGSLRLSCTASGFSLTDYYYMTWVRQAPGKGLEWVGFIDPDDDPYYATWAKGRFTISRDTSKNTVYLQMNSLRAEDTAVYYCAGGDHNSGWGLDIWGQGTLVTVSS
VL: EIVMTQSPSTLSASVGDRVIITCQASEIIHSWLAWYQQKPGKAPKLLIYLASTLASGVPSRFSGSGSGAEFTLTISSLQPDDFATYYCQNVYLASTNGANFGQGTKLTVLG

- binding result [8]: no binding
- Kd [9]: 28.9 nM
B3: 435-min (antibody, V domains shown)
VH: EVQLVESGGGLVQPGGSLRLSCAASGFSLNTNYWMCWVRQAPGKGLEWVSCMYTGSYNRAYYASWAKGRFTISRDNSKNTLYLQMNSLRAEDTAVYYCAKGSNWYSDLWGQGTLVTVSS
VL: EIVMTQSPSTLSASVGDRVIITCQASQSIGSSLAWYQQKPGKAPKLLIYTAANLASGVPSRFSGSGSGAEFTLTISSLQPDDFATYYCQNFATSDTVTFGQGTKLTVLG

- Kd [1]: 1.18 nM
- koff [2]: 35.7 s⁻¹
B5: 610-max (antibody, V domains shown)
VH: EVQLVESGGGLVQPGGSLRLSCTASGIDFSGAYYMGWVRQAPGKGLEWVGYIDYDGDRYYASWAKGRFTISKDTSKNTVYLQMNSLRAEDTAVYYCARSDYSSGWGTDIWGQGTLVTVSS
VL: EIVMTQSPSTLSASVGDRVIITCQASQSISSWLSWYQQKPGKAPKLLIYQASTLASGVPSRFSGSGSGTEFTLTISSLQPDDFATYYCQNNYGFRSYGGAFGQGTKLTVLG

- Kd [1]: 10.6 nM
- binding result [16]: no binding
B6: 610-min (antibody, V domains shown)
VH: B5 VH with T23A, G50S, K72R, T74N, V79L, R98K
VL: B5 VL with T69A

— US10590193 (dated 2020)
